Measured values from patent US8877192B2, “Rage fusion proteins and methods of use” (TransTech Pharma, LLC, priority 2004, dated 2014).

Experiments:
[1] = system: S100b/RAGE-induced production of TNF-α in THP-1 cells; assay: S100b/RAGE-induced production of TNF-α in THP-1 cells; assay type: cell-based; conditions: FIG. 10
Protocol: THP-1 myeloid cells may be cultured in RPMI-1640 media supplemented with 10% FBS and induced to secrete TNF-α via stimulation of RAGE with S100b. When such stimulation occurs in the presence of a RAGE fusion protein, induction of TNF-α by S100b binding to RAGE may be inhibited.
Previous work has shown that the myeloid THP-1 cells may secrete TNF-α in response to RAGE ligands. In this assay, THP-1 cells were cultured in RPMI-1640 media supplemented with 10% FBS using a protocol provided by ATCC. […] The amount of TNF-α secreted by the THP-1 cells was measured 24 hours after the addition of the proteins to the cell culture using a commercially available ELISA kit for TNF-α (R&D Systems, Minneapolis, Minn.).

[2] = biological target: T1, S100b (S100) (Homo sapiens, UniProt P04271); assay: In vitro ligand binding (ELISA) to immobilized S100b; conditions: increasing dilutions of fusion protein; FIG. 7
T1 sequence (P04271 1-92): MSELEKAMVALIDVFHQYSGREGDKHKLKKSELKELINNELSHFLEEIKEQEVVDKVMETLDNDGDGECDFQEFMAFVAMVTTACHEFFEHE
Protocol: (§1) For example, the RAGE fusion protein may be used in a binding assay to identify potential RAGE ligands. In one example embodiment of such a binding assay, a known RAGE ligand may coated onto a solid substrate (e.g., Maxisorb plates) at a concentration of about 5 micrograms per well, where each well contains a total volume of about 100 microliters (μL). The plates may be incubated at 4° C. overnight to allow the ligand to absorb. Alternatively, shorter incubation periods at higher temperature (e.g., room temperature) may be used. […] The fusion protein bound to the immobilized ligand may be detected in a variety of ways. […] The bound complex may be detected by adding the alkaline phosphatase substrate, para-nitrophenylphosphate (PNPP), and measuring conversion of PNPP to para-nitrophenol (PNP) as an increase in absorbance at 405 nm. […] Binding was detected by the addition of an immunodetection complex containing a monoclonal mouse anti-human IgG1 diluted 1:11,000 to a final assay concentration (FAC) of 21 ng/100 μL, a biotinylated goat anti-mouse IgG diluted 1:500, to a FAC of […], and an avidin-linked alkaline phosphatase. […] Binding of the complex to the immobilized fusion protein was quantified by measuring conversion of PNPP to para-nitrophenol (PNP) which was measured spectrophotometrically at 405 nm. […]

[3] = biological target: T2, amyloid-beta (Abeta) (Homo sapiens, UniProt P05067); assay: In vitro ligand binding (ELISA) to immobilized amyloid-beta; conditions: increasing dilutions of fusion protein; FIG. 7
T2 construct: Amyloid Beta (1-40) from Biosource; purchased Biosource
Protocol: as §1

[4] = Pharmacokinetic profile of TTP-4000 after IV injection, plasma ELISA; assay type: in vivo, monkeys; conditions: single IV bolus 5 mg/kg, 2 animals, FIG. 11
Protocol: Following collection, the tubes were placed on wet ice (maximum 30 minutes) until centrifugation under refrigeration (at 2 to 8° C.) at 1500×g for 15 minutes. Each harvested plasma sample was then stored frozen (−70° C.±10° C.) until assayed for RAGE polypeptide using an ELISA at various time-points following the injection, as described in Example 6.
Initially, 50 uL of the RAGE specific monoclonal antibody 1HB1011 at a concentration of 10 ug/mL in 1×PBS pH 7.3 is coated on plates via overnight incubation. When ready for use, plates are washed three times with 300 uL of 1× Imidazole-Tween wash buffer and blocked with 1% BSA. […] The samples are allowed to incubate at room temperature for one hour. After incubation, the plates are plates are washed three times. A Goat Anti-human IgG1 1 (Sigma A3312) AP conjugate in 1×PBS with 1% BSA is added and allowed to incubate at room temperature for 1 hour. The plates are washed three times. Color was elucidated with paranitrophenylphosphate.

[5] = system: Fc receptor; assay: Fc receptor activation: TNF-α secretion from THP-1 cells; assay type: cell-based; conditions: wells precoated with 10 ug/well heat aggregated protein, 24 hours, FIG. 12
Excerpt: Fc stimulation results in TNF-α secretion.

T2 sequence (P05067 672-711 limits assumed): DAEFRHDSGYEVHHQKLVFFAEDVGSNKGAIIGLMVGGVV

B1: TTP-4000: four domain RAGE fusion protein (SEQ ID NO: 32): human RAGE amino acids 1-251 linked to CH2 and CH3 domains of human IgG (protein)
chain: MAAGTAVGAWALVLSLWGAVVGAQNITARIGEPLVLKCKGAPKKPPQRLEWKLNTGRTEAWKVLSPQGGGPWDSVARVLPNGSLFLPAVGIQDEGIFRCQAMNRNGKETKSNYRVRVYQIPGKPEIVDSASELTAGVPNKVGTCVSEGSYPAGTLSWHLDGKPLVPNEKGVSVKEQTRRHPETGLFTLQSELMVTPARGGDPRPTFSCSFSPGLPRHRALRTAPIQPRVWEPVPLEEVQLVVEPEGGAVAPPSVFLFPPKPKDTLMISRTPEVTCVVVDVSHEDPEVKFNWYVDGVEVHNAKTKPREEQYNSTYRVVSVLTVLHQDWLNGKEYKCKVSNKALPAPIEKTISKAKGQPREPQVYTLPPSRDELTKNQVSLTCLVKGFYPSDIAVEWESNGQPENNYKTTPPVLDSDGSFFLYSKLTVDKSRWQQGNVFSCSVMHEALHNHYTQKSLSLSPGK
- reduction of induction of TNF-α by S100b ([1]; 10 μg protein, S100b 0.1 mg/ml FAC, 24 hours): ~70%
- blocking S100b induction of TNF-α compared with sRAGE ([1]; 10 μg): at least as effective in blocking S100b induction of TNF-α as is sRAGE
- binding to immobilized S100b (absorbance at 405 nm) [2]: specifically interact
- binding to immobilized amyloid-beta (absorbance at 405 nm) [3]: specifically interact
- terminal half-life [4]: greater than 300 hours
- TNF generated [5]: less than 2 ng/well
